To fix the notation:
B1: Cluster of Keratin, type II cytoskeletal 2 epidermal (protein, UniProt P35908 1-639, looked up)
Keratin, type II cytoskeletal …: MSCQISCKSRGRGGGGGGFRGFSSGSAVVSGGSRRSTSSFSCLSRHGGGGGGFGGGGFGSRSLVGLGGTKSISISVAGGGGGFGAAGGFGGRGGGFGGGSSFGGGSGFSGGGFGGGGFGGGRFGGFGGPGGVGGLGGPGGFGPGGYPGGIHEVSVNQSLLQPLNVKVDPEIQNVKAQEREQIKTLNNKFASFIDKVRFLEQQNQVLQTKWELLQQMNVGTRPINLEPIFQGYIDSLKRYLDGLTAERTSQNSELNNMQDLVEDYKKKYEDEINKRTAAENDFVTLKKDVDNAYMIKVELQSKVDLLNQEIEFLKVLYDAEISQIHQSVTDTNVILSMDNSRNLDLDSIIAEVKAQYEEIAQRSKEEAEALYHSKYEELQVTVGRHGDSLKEIKIEISELNRVIQRLQGEIAHVKKQCKNVQDAIADAEQRGEHALKDARNKLNDLEEALQQAKEDLARLLRDYQELMNVKLALDVEIATYRKLLEGEECRMSGDLSSNVTVSVTSSTISSNVASKAAFGGSGGRGSSSGGGYSSGSSSYGSGGRQSGSRGGSGGGGSISGGGYGSGGGSGGRYGSGGGSKGGSISGGGYGSGGGKHSSGGGSRGGSSSGGGYGSGGGGSSSVKGSSGEAFGSSVTFSFR
B2: Complement factor H-related protein 1 (protein)
chain: EATFCDFPKINHGILYDEEKYKPFSQVPTGEVFYYSCEYNFVSPSKSFWTRITCTEEGWSPTPKCLRLCFFPFVENGHSESSGQTHLEGDTVQIICNTGYRLQNNENNISCVERGWSTPPKCRSTDTSCVNPPTVQNAHILSRQMSKYPSGERVRYECRSPYEMFGDEEVMCLNGNWTEPPQCKDSTGKCGPPPPIDNGDITSFPLSVYAPASSVEYQCQNLYQLEGNKRITCRNGQWSEPPKCLHPCVISREIMENYNIALRWTAKQKLYLRTGESAEFVCKRGYRLSSRSHTLRTTCWDGKLEYPTCAKR
B3: Galectin-3-binding protein (protein)
chain: VNDGDMRLADGGATNQGRVEIFYRGQWGTVCDNLWDLTDASVVCRALGFENATQALGRAAFGQGSGPIMLDEVQCTGTEASLADCKSLGWLKSNCRHERDAGVVCTNETRSTHTLDLSRELSEALGQIFDSQRGCDLSISVNVQGEDALGFCGHTVILTANLEAQALWKEPGSNVTMSVDAECVPMVRDLLRYFYSRRIDITLSSVKCFHKLASAYGARQLQGYCASLFAILLPQDPSFQMPLDLYAYAVATGDALLEKLCLQFLAWNFEALTQAEAWPSVPTDLLQLLLPRSDLAVPSELALLKAVDTWSWGERASHEEVEGLVEKIRFPMMLPEELFELQFNLSLYWSHEALFQKKTLQALEFHTVPFQLLARYKGLNLTEDTYKPRIYTSPTWSAFVTDSSWSARKSQLVYQSRRGPLVKYSSDYFQAPSDYRYYPYQSFQTPQHPSFLFQDKRVSWSLVYLPTIQSCWNYGFSCSSDELPVLGLTKSGGSDRTIAYENKALMLCEGLFVADVTDFEGWKAAIPSALDTNSSKSTSSFPCPAGHFNGFRTVIRPFYLTNSSGVD
B4: Ig heavy chain V-I region HG3 (protein)
chain: QVQLVQSGAEVKKPGASVKVSCKASGYTFTSYYMHWVRQAPGQGLEWMGIINPSGGSTSYAQKFQGRVTMTRDTSTSTVYMELSSLRSEDTAVYYCAR
B5: Ig kappa chain V-I region BAN (protein)
chain: DIQMTQSPSSLSASVGDRVTITCRASQGISNYLAWFQQKPGKAPKSLIYAASSLQSGVPSKFSGSGSGTDFTLTISSLQPEDFATYYCQQYNSYP
B6: Heterogeneous nuclear ribonucleoprotein R (protein)
chain: ANQVNGNAVQLKEEEEPMDTSSVTHTEHYKTLIEAGLPQKVAERLDEIFQTGLVAYVDLDERAIDALREFNEEGALSVLQQFKESDLSHVQNKSAFLCGVMKTYRQREKQGSKVQESTKGPDEAKIKALLERTGYTLDVTTGQRKYGGPPPDSVYSGVQPGIGTEVFVGKIPRDLYEDELVPLFEKAGPIWDLRLMMDPLSGQNRGYAFITFCGKEAAQEAVKLCDSYEIRPGKHLGVCISVANNRLFVGSIPKNKTKENILEEFSKVTEGLVDVILYHQPDDKKKNRGFCFLEYEDHKSAAQARRRLMSGKVKVWGNVVTVEWADPVEEPDPEVMAKVKVLFVRNLATTVTEEILEKSFSEFGKLERVKKLKDYAFVHFEDRGAAVKAMDEMNGKEIEGEEIEIVLAKPPDKKRKERQAARQASRSTAYEDYYYHPPPRMPPPIRGRGRGGGRGGYGYPPDYYGYEDYYDDYYGYDYHDYRGGYEDPYYGYDDGYAVRGRGGGRGGRGAPPPPRGRGAPPPRGRAGYSQRGAPLGPPRGSRGGRGGPAQQQRGRGSRGSRGNRGGNVGGKRKADGYNQPDSKRRQTNNQQNWGSQPIAQQPLQQGGDYSGNYGYNNDNQEFYQDTYGQQWK
B7: Apolipoprotein F (protein)
chain: SLPTEDCENEKEQAVHNVVQLLPGVGTFYNLGTALYYATQNCLGKARERGRDGAIDLGYDLLMTMAGMSGGPMGLAISAALKPALRSGVQQLIQYYQDQKDANISQPETTKEGLRAISDVSDLEETTTLASFISEVVSSAPYWGWAIIKSYDLDPGAGSLEI
B8: Isoform 2 of C4b-binding protein beta chain (protein)
chain: ASDEHCPELPPVDNSIFVAKEVEGQILGTYVCIKGYHLVGKKTLFCNASKEWDNTTTECRLGHCPDPVLVNGEFSSSGPVNVSDKITFMCNDHYILKGSNRSQCLEDHTWAPPFPICKSRDCDPPGNPVHGYFEGNNFTLGSTISYYCEDRYYLVGVQEQQCVDGEWSSALPVCKLIQEAPKPECEKALLAFQESKNLCEAMENFMQQLKESGMTMEELKYSLELKKAELKAKLL

The target in the first test is T1, Abeta-42 plaque particles (Homo sapiens, UniProt P05067).
T1 construct: Abeta 1-42
Description: Mass spectroscopy proteomics, semi-quantitative binding affinity of serum proteins (plaqueproteome, Table 2). The note with it: higher number = stronger affinity. The essentials:
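AD patient serum or plasma (50% in PBS) was incubated with Abeta-42 aggregates (30 μg) for 1 h at 37 °C, then stained with Thioflavin S for 30 min. Labeled particles were FACS-sorted, trypsin/Lys-C digested overnight and analyzed by MS/MS. Sequest searched human UniProt; Scaffold/Protein Prophet validated the identifications.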
As for B1, the “Semi-quantitative analysis of proteins binding to different plaque particles: Abeta-42” value came out at 171.

As for B2, the “Semi-quantitative analysis of proteins binding to different plaque particles: Abeta-42” value worked out at 0.

Consider B3, for which the “Semi-quantitative analysis of proteins binding to different plaque particles: Abeta-42” value came out at 0.

Regarding B4, the “Semi-quantitative analysis of proteins binding to different plaque particles: Abeta-42” value came to 2.

Take B5: the “Semi-quantitative analysis of proteins binding to different plaque particles: Abeta-42” value is 2.

As to B6, the “Semi-quantitative analysis of proteins binding to different plaque particles: Abeta-42” value came to 2.

With B7, the “Semi-quantitative analysis of proteins binding to different plaque particles: Abeta-42” value amounted to 0.

B8: the “Semi-quantitative analysis of proteins binding to different plaque particles: Abeta-42” value amounted to 0.

A further test concerns High Density cholesterol (Chl Large) plaque particles. The test is described as above. The note with it: higher number = stronger affinity. Also on record: species or system human. The essentials: (§1)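 Read-out is MS/MS protein identification (Sequest, strict trypsin, 20 ppm parent tolerance; Scaffold probabilities) of serum proteins bound to flow-sorted cholesterol plaque particles. These particles formed when 50% atherosclerotic serum was incubated with 30 μg cholesterol aggregates for 1 hr at 37° C.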
With B1, the “Semi-quantitative analysis of proteins binding to different plaque particles: Chl Large” value stood at 14.

For B2, the “Semi-quantitative analysis of proteins binding to different plaque particles: Chl Large” value was 2.

Turning to B3, the “Semi-quantitative analysis of proteins binding to different plaque particles: Chl Large” value was determined as 1.

With B4, the “Semi-quantitative analysis of proteins binding to different plaque particles: Chl Large” value was found to be 1.

Consider B5, for which the “Semi-quantitative analysis of proteins binding to different plaque particles: Chl Large” value was 2.

With B6, the “Semi-quantitative analysis of proteins binding to different plaque particles: Chl Large” value is on record as 0.

For B7, the “Semi-quantitative analysis of proteins binding to different plaque particles: Chl Large” value was 0.

In the case of B8, the “Semi-quantitative analysis of proteins binding to different plaque particles: Chl Large” value is given as 0.

The next test has as its system Low density cholesterol (Chl small) plaque particles. The description is as above. Also on record: species or system human. The note with it: higher number = stronger affinity. The essentials:
as §1
Regarding B1, the “Semi-quantitative analysis of proteins binding to different plaque particles: Chl small” value is on record as 20.

B2: the “Semi-quantitative analysis of proteins binding to different plaque particles: Chl small” value was determined as 1.

For the molecule B3, the “Semi-quantitative analysis of proteins binding to different plaque particles: Chl small” value amounted to 0.

With B4, the “Semi-quantitative analysis of proteins binding to different plaque particles: Chl small” value was determined as 1.

Regarding B5, the “Semi-quantitative analysis of proteins binding to different plaque particles: Chl small” value is 1.

For B6, the “Semi-quantitative analysis of proteins binding to different plaque particles: Chl small” value stood at 0.

For the molecule B7, the “Semi-quantitative analysis of proteins binding to different plaque particles: Chl small” value is 1.

Consider B8, for which the “Semi-quantitative analysis of proteins binding to different plaque particles: Chl small” value is 1.

For another test, the target named is T2, alpha-synuclein plaque particles (Homo sapiens, UniProt P37840).
T2 construct: 140 amino acids polypeptide
Described as above. The note with it: higher number = stronger affinity. The method in brief:
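AD-subject plasma or serum (800 μL of 50%) mixed with 30 μg preformed alpha-synuclein aggregates for 1 h at 37 °C; Thioflavin S-positive particles isolated by flow sorting. After reduction, acrylamide alkylation and overnight tryptic digestion, serum proteins identified by MS/MS with Sequest and Scaffold.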
Consider B1, for which the “Semi-quantitative analysis of proteins binding to different plaque particles: Synuclein” value came out at 3.

For the molecule B2, the “Semi-quantitative analysis of proteins binding to different plaque particles: Synuclein” value is recorded as 0.

For the molecule B3, the “Semi-quantitative analysis of proteins binding to different plaque particles: Synuclein” value was found to be 0.

With B4, the “Semi-quantitative analysis of proteins binding to different plaque particles: Synuclein” value came to 2.

On to B5, for which the “Semi-quantitative analysis of proteins binding to different plaque particles: Synuclein” value was found to be 1.

B6: the “Semi-quantitative analysis of proteins binding to different plaque particles: Synuclein” value is on record as 0.

For the molecule B7, the “Semi-quantitative analysis of proteins binding to different plaque particles: Synuclein” value is on record as 2.

With B8, the “Semi-quantitative analysis of proteins binding to different plaque particles: Synuclein” value was 0.

The test system of a further test is Tau plaque particles. The test is described as above. Also on record: species or system human. The note with it: higher number = stronger affinity. The method in brief:
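Serum or plasma proteins captured on Thioflavin S-labelled Tau plaque particles (Tau-74, Tau-275 oligomers preformed in PBS at 37° C for 2 h; 1 h co-incubation at 37° C) were isolated by FACS sorting, then tryptically digested and identified by MS/MS (Sequest, human UniProt, strict trypsin).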
Take B1: the “Semi-quantitative analysis of proteins binding to different plaque particles: Tau” value is listed as 24.

For the molecule B2, the “Semi-quantitative analysis of proteins binding to different plaque particles: Tau” value was found to be 1.

In the case of B3, the “Semi-quantitative analysis of proteins binding to different plaque particles: Tau” value was found to be 0.

Turning to B4, the “Semi-quantitative analysis of proteins binding to different plaque particles: Tau” value amounted to 1.

Turning to B5, the “Semi-quantitative analysis of proteins binding to different plaque particles: Tau” value was 2.

Turning to B6, the “Semi-quantitative analysis of proteins binding to different plaque particles: Tau” value is 0.

Consider B7, for which the “Semi-quantitative analysis of proteins binding to different plaque particles: Tau” value came out at 1.

Regarding B8, the “Semi-quantitative analysis of proteins binding to different plaque particles: Tau” value is 0.

The values above are taken from US9618524B2, “Method, composition, isolation and identification of a plaque particle and related biomarker” (Plaxgen Inc., priority 2012, dated 2017).
